We go through one molecule from patent publication US20240401101A1, “A LIVE CELL ASSAY TO DETERMINE PERMEABILITY OF TEST MOLECULES TO AND/OR WITHIN THE PEPTIDOGLYCAN SCAFFOLD OF BACTERIA CELLS” (priority 2021, published 2024).

This assay deals with S. aureus (ATCC 25923). The assay can be described thus: Enzymatic degradation of fluorescently labeled whole cells (mutanolysin / proteinase K), incl. BONCAT control. The format is cell-based, Staphylococcus aureus.

B1: proteinase K: promiscuous protease (protein, UniProt P06873 106-384, looked up)
Proteinase K: AAQTNAPWGLARISSTSPGTSTYYYDESAGQGSCVYVIDTGIEASHPEFEGRAQMVKTYYYSSRDGNGHGTHCAGTVGSRTYGVAKKTQLFGVKVLDDNGSGQYSTIIAGMDFVASDKNNRNCPKGVVASLSLGGGYSSSVNSAAARLQSSGVMVAVAAGNNNADARNYSPASEPSVCTVGASDRYDRRSSFSNYGSVLDIFGPGTSILSTWIGGSTRSISGTSMATPHVAGLAAYLMTLGKTTAASACRYIADTANKGDLSNIPFGTVNLLAYNNYQA
B1: under “50 μg/mL mutanolysin or 500 μg/mL proteinase K, mutanolysin read at 120 minutes”, the “cellular fluorescence of D-cystine/Mal-Fl labeled cells during enzyme treatment” value is given as “remained mostly unchanged”. Besides, for the setting “BONCAT, 1 mM AHA, 25 μM DBCO-Fl”, the “cellular fluorescence of L-azidohomoalanine/DBCO-Fl labeled cells after enzyme treatment” value was “significant decrease”.
